Measurements: article PMC12830992, “Insights into the self-assembly and interaction of sars-cov-2 fusion peptides with biomimetic plasma membranes” (Nature Communications, 2025)

B1: SARS-CoV-2 Spike fusion peptide FP1 (residues 816-837) (peptide)
peptide: SFIEDLLFNKVTLADAGFIKQY
notes: Spike (S) glycoprotein of SARS-CoV-2, S2 subunit fusion domain, residues 816-837
B2: SARS-CoV-2 Spike fusion peptide FP2 (residues 835-856) (peptide)
peptide: KQYGDCLGDIAARDLICAQKFN
notes: Spike (S) glycoprotein of SARS-CoV-2, S2 subunit fusion domain, residues 835-856

Biological target: the molecule itself
Test: atomic force microscopy (topography); peptide mixed at 5 mol% with plasma membrane lipid mixture, Langmuir-Blodgett monolayer compressed to 20 mN/m (liquid-expanded phase), transferred onto mica, imaged in air at room temperature, Peak Force mode

Protein | binding result
B1 | binds
B2 | binds
